Assay results from publication PMC12152872 (2025).
Values joined by “and” are separate entries in the source; they are usually repeats but may differ in a detail not shown here. Equal values may be shown once.

Target: T1, BTN2A1 B30.2 (Homo sapiens, UniProt Q7KYR7)
T1 chain: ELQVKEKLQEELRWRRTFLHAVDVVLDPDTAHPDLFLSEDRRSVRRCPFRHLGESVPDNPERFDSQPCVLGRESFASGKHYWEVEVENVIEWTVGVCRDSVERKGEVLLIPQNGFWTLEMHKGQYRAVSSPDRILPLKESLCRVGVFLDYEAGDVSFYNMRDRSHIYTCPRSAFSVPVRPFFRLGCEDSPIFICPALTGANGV
Experiment: ITC

B1: BTN3A1 B30.2 (protein)
chain: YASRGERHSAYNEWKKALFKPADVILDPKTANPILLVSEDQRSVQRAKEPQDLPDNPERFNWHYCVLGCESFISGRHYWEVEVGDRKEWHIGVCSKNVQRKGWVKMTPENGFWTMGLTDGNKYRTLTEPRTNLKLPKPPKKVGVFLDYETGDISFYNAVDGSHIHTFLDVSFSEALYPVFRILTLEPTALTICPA
modifications: DMASPP
Which Kd does the source give for B1 here?
Its Kd is 8.19 µM and 18.8 µM.
